Measured values published in the RNAGym collection of RNA variant scans (doi:10.7554/elife.80360).

B1: Hairpin Ribozyme (parent)
chain: GUCCUCUUUCACGUGCGCGUGAAAGAGAGAAGUGAACCAGAGAAACACACGUUGUGGUAUAUUACCUGGUA

Variants of: B1
Experiment: self-cleavage, relative activity (ratio to wild type); higher = more cleavage; co-transcriptional

| Variant | self-cleavage |
| --- | --- |
| G19C C46U | 0.229 |
| A28G G29U | 0.0365 |
| C4U | 0.371 |
| C16A A64C | 0.133 |
| U2G U55A | 0.195 |
| G68A A71G | 0.174 |
| G27A A35G | 0.449 |
| G32A C65G | 0.102 |
| G42C C66G | 0.137 |
| A45G G57A | 0.0893 |
| A43G A64U | 0.302 |
| U14C G54U | 0.541 |
| C6A C50A | 0.223 |
| U8A U63G | 0.117 |
| U2C A39U | 0.249 |
| A39C G68C | 0.191 |
| C12U A43G | 0.0708 |
| C12U A44U | 0.0952 |
| G25A G29C | 0.118 |
| U33G C48G | 0.209 |
| G17A G42C | 0.367 |
| A22C C48U | 0.235 |
| U2C C10U | 0.159 |
| U8G A71U | 0.588 |

| Variant | self-cleavage |
| --- | --- |
| U14A A22U | 0.715 |
| A31C U70G | 0.0868 |
| A26G G57C | 0.103 |
| A44G U63G | 0.239 |
| U62G C66G | 0.0965 |
| U52G U70G | 0.933 |
| C18A U62C | 0.22 |
| A24U G68U | 0.22 |
| G19A A44C | 0.0966 |
| U9C G27U | 0.246 |
| C3U U60A | 0.446 |
| A36U G69A | 0.173 |
| G13C C48U | 0.108 |
| U2G G51U | 0.389 |
| U8A A11G | 0.772 |
| G17C A45C | 0.0898 |
| A24G A59U | 0.153 |
| C37U A39C | 0.0611 |
| A23C G34A | 1.1 |
| G57U U58C | 0.278 |
| A39C G69A | 0.168 |
| C46U G68A | 0.0828 |
| U58C G69C | 0.259 |
| A36G A41C | 1.1 |

| Variant | self-cleavage |
| --- | --- |
| C6G C12A | 0.572 |
| A30C C66U | 0.169 |
| A59G U62A | 0.144 |
| C12G G32U | 0.179 |
| G57U A71C | 0.738 |
| A49C G54C | 0.187 |
| A30U A39U | 0.0553 |
| G25A A28G | 0.849 |
| U9A G29C | 0.154 |
| C6U G54A | 0.59 |
| G13A G27C | 0.217 |
| A22U U63A | 0.155 |
| U14G A64C | 0.27 |
| G15U A59G | 0.161 |
| A11G A23C | 0.596 |
| G21U A28U | 0.688 |
| A45G U53A | 0.234 |
| C4A A22C | 0.131 |
| U14G A36G | 1.11 |
| G15C G29U | 0.174 |
| G57C U60G | 0.178 |
| G27A U63G | 0.134 |
| A35U A49U | 0.155 |
| G13A A64U | 0.258 |

| Variant | self-cleavage |
| --- | --- |
| G13U G25C | 0.274 |
| A43U C66U | 0.162 |
| G19U G42C | 0.492 |
| C3A G32C | 0.114 |
| U9C A23U | 0.528 |
| C4G U33G | 0.13 |
| U7C G54C | 0.683 |
| G29C U70G | 0.119 |
| C3U G56C | 0.182 |
| A28G A30C | 0.0631 |
| C3U G27A | 0.187 |
| G34C G42U | 1.19 |
| G19U A59C | 0.242 |
| U9A A11U | 0.541 |
| U55C U62C | 0.315 |
| A41U C66U | 0.46 |
| U9A A39G | 0.201 |
| A41G U53G | 1.05 |
| A23U C38U | 0.312 |
| A11C A71C | 1.15 |
| A11U G54C | 0.333 |
| C16A U55G | 0.232 |
| G19U C50G | 0.199 |
| G17U U33G | 0.186 |

| Variant | self-cleavage |
| --- | --- |
| G1C U20A | 0.175 |
| U20C A71U | 0.79 |
| C16G A71G | 1.05 |
| G32U A59U | 0.0402 |
| A47G U62A | 0.0725 |
| U55C A61U | 0.281 |
| G1U G25U | 0.21 |
| U5G A45G | 0.121 |
| C10A A45U | 0.121 |
| G1U U20C | 0.203 |
| C6U U9G | 0.438 |
| A26G G42U | 0.371 |
| G21C C48U | 0.098 |
| U14G A59U | 0.183 |
| U33G U62A | 0.126 |
| U33G G34C | 0.337 |
| C46U C66U | 0.149 |
| C3A G13A | 0.628 |
| A23C C65G | 0.186 |
| C46G U53A | 0.0595 |
| A35U U60G | 0.343 |
| A36U C37U | 0.21 |
| C12G C65U | 0.28 |
| G25A C66G | 0.133 |

| Variant | self-cleavage |
| --- | --- |
| A23U A71G | 0.876 |
| C16A A61C | 0.359 |
| C10A U52G | 0.731 |
| A45C U67G | 0.0812 |
| G21U C37A | 0.267 |
| A41U A49G | 1.06 |
| A45U G54C | 0.23 |
| A28C U55G | 0.217 |
| C48G G69U | 0.0941 |
| C66U U70C | 0.506 |
| U9C A43U | 0.298 |
| G32C G40U | 0.086 |
| C6A G27C | 0.118 |
| U2A A35U | 0.174 |
| U8G U70A | 0.715 |
| G13A A39G | 0.279 |
| A36G A64U | 0.138 |
| C10G C18G | 0.621 |
| G32A A44G | 0.143 |
| U8A C48A | 0.111 |
| A47C A61U | 0.137 |
| A11C G15U | 0.996 |
| C38A U52A | 0.41 |
| U53A U60G | 0.684 |

| Variant | self-cleavage |
| --- | --- |
| C6G G27U | 0.161 |
| G40U G56A | 0.174 |
| G27C A28G | 0.128 |
| G27C U63G | 0.101 |
| G1A G17C | 0.12 |
| A35G | 0.931 |
| A35U C46U | 0.143 |
| U7G A71G | 1.06 |
| U8C U63C | 0.132 |
| G21A U63A | 0.14 |
| U33G G51U | 0.252 |
| A49G C50U | 0.129 |
| A22U U52G | 0.883 |
| U14C | 0.982 |
| C12A C46G | 0.161 |
| A23C A43C | 0.146 |
| A31G G40C | 0.247 |
| A11G G27U | 0.248 |
| A28G A43G | 0.158 |
| C50A A59G | 0.0618 |
| U8A G54U | 0.524 |
| U7A U58C | 1.02 |
| G15A U63A | 0.116 |
